The data set relates to Escherichia coli TOP10. Kind of data set: shrunken log2 fold change of peptide-encoding DNA abundance (4.5 h post-induction vs induction); higher = less antimicrobial activity (less host growth inhibition). The following applies: time post-induction: 4.5 h; library: site-saturation at positions 5, 18, 19, 20.
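Note: peptides expressed intracellularly from a pBAD plasmid library in pooled LB shake-flask culture, induced with 0.3% L-arabinose, DNA abundance read by NGS, three biological replicates, DESeq2 with apeglm shrinkage.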

On to RRIRKRPPRLPRPRPRPTVTPRP, for which the “shrunken log2 fold change” value was determined as 0.229. As to RRIRDRPPRLPRPRPRPDQRPRP, the “shrunken log2 fold change” value is -0.00174. To RRIRWRPPRLPRPRPRPHDGPRP belongs -0.00986. The value for RRIRARPPRLPRPRPRPHRTPRP was -0.115; that for RRIRIRPPRLPRPRPRPADFPRP was -0.162. To RRIRIRPPRLPRPRPRPIIHPRP belongs -0.667. On to RRIRNRPPRLPRPRPRPIPRPRP, for which the “shrunken log2 fold change” value was found to be 0.0496. On to RRIRNRPPRLPRPRPRPMQIPRP, for which the “shrunken log2 fold change” value was 0.0592.

For the sequence RRIRERPPRLPRPRPRPVKTPRP, the “shrunken log2 fold change” value was determined as 0.0285. To RRIRHRPPRLPRPRPRPCGRPRP belongs -0.0197. To RRIRPRPPRLPRPRPRPYSYPRP belongs -0.228. As for RRIRCRPPRLPRPRPRPGFEPRP, the “shrunken log2 fold change” value came to 0.244. To RRIRHRPPRLPRPRPRPWELPRP belongs -0.0835; to RRIRDRPPRLPRPRPRPPRVPRP, 0.727; to RRIRDRPPRLPRPRPRPSIPPRP, -0.43. To RRIRIRPPRLPRPRPRPENEPRP belongs -0.428; to RRIRRRPPRLPRPRPRPGHNPRP, 0.06; to RRIRDRPPRLPRPRPRPIDWPRP, 0.129. To RRIRTRPPRLPRPRPRPARFPRP belongs 0.128; to RRIRERPPRLPRPRPRPHINPRP, -0.713.

Take RRIRNRPPRLPRPRPRPKGFPRP: the “shrunken log2 fold change” value was -0.0324. The value for RRIRIRPPRLPRPRPRPNPIPRP was -0.155. To RRIRHRPPRLPRPRPRPMHEPRP belongs 0.0983.

As to RRIRGRPPRLPRPRPRPGTYPRP, the “shrunken log2 fold change” value was -0.201.

For RRIRQRPPRLPRPRPRPFDQPRP, the “shrunken log2 fold change” value is -0.0498. The value for RRIRNRPPRLPRPRPRPLELPRP was -0.0825; that for RRIRNRPPRLPRPRPRPKQFPRP was -0.214; that for RRIRNRPPRLPRPRPRPENGPRP was -0.0225.

For RRIRARPPRLPRPRPRPKFNPRP, the “shrunken log2 fold change” value was -0.129.

Take RRIRQRPPRLPRPRPRPRPWPRP: the “shrunken log2 fold change” value amounted to 0.858. To RRIRARPPRLPRPRPRPARYPRP belongs 0.12; to RRIRERPPRLPRPRPRPCKNPRP, -0.121; to RRIRSRPPRLPRPRPRPANMPRP, -0.289. The value for RRIRKRPPRLPRPRPRPNGDPRP was -0.024.

RRIRGRPPRLPRPRPRPAWHPRP: the “shrunken log2 fold change” value worked out at 0.521.

Take RRIRLRPPRLPRPRPRPVGNPRP: the “shrunken log2 fold change” value worked out at 0.0885. The value for RRIRERPPRLPRPRPRPAAPPRP was 0.504; that for RRIRRRPPRLPRPRPRPLLQPRP was 0.512. For RRIRGRPPRLPRPRPRPIYMPRP, the “shrunken log2 fold change” value is -0.191.

As to RRIRQRPPRLPRPRPRPHVMPRP, the “shrunken log2 fold change” value was -0.444.

In the case of RRIRTRPPRLPRPRPRPFSMPRP, the “shrunken log2 fold change” value is -0.0868. The value for RRIRRRPPRLPRPRPRPVHNPRP was 0.0641. Consider RRIRDRPPRLPRPRPRPTTDPRP, for which the “shrunken log2 fold change” value came out at 0.547. To RRIRSRPPRLPRPRPRPNMMPRP belongs -0.166; to RRIRYRPPRLPRPRPRPYIVPRP, -0.496; to RRIRRRPPRLPRPRPRPFCEPRP, 0.0918. Take RRIRVRPPRLPRPRPRPLQPPRP: the “shrunken log2 fold change” value was 0.158. To RRIRCRPPRLPRPRPRPRNSPRP belongs -0.113. In the case of RRIRFRPPRLPRPRPRPPCIPRP, the “shrunken log2 fold change” value is -0.0411. To RRIRTRPPRLPRPRPRPMTMPRP belongs -0.223; to RRIRWRPPRLPRPRPRPLYLPRP, -0.5.

As for RRIRNRPPRLPRPRPRPAEMPRP, the “shrunken log2 fold change” value is -0.00992.

As for RRIRVRPPRLPRPRPRPGDIPRP, the “shrunken log2 fold change” value was -0.264. The value for RRIRVRPPRLPRPRPRPEQGPRP was 0.0379; that for RRIRPRPPRLPRPRPRPAFTPRP was -0.0147; that for RRIRWRPPRLPRPRPRPWHNPRP was -0.203. The value for RRIRQRPPRLPRPRPRPSAWPRP was 0.19; that for RRIRPRPPRLPRPRPRPKGAPRP was 0.21.

Take RRIRTRPPRLPRPRPRPWTGPRP: the “shrunken log2 fold change” value was -0.352. To RRIRSRPPRLPRPRPRPYFHPRP belongs -0.853.

Turning to RRIRGRPPRLPRPRPRPHTWPRP, the “shrunken log2 fold change” value was -0.0293. To RRIRMRPPRLPRPRPRPLWRPRP belongs 0.704. The value for RRIRERPPRLPRPRPRPNFKPRP was -0.181. To RRIRHRPPRLPRPRPRPVHEPRP belongs -0.0609; to RRIRPRPPRLPRPRPRPQKSPRP, 0.0462; to RRIRKRPPRLPRPRPRPQQFPRP, -0.0324.

On to RRIRMRPPRLPRPRPRPLGDPRP, for which the “shrunken log2 fold change” value is 0.364. The value for RRIRSRPPRLPRPRPRPPIRPRP was 0.129. The value for RRIRQRPPRLPRPRPRPPMDPRP was -0.0321; that for RRIRQRPPRLPRPRPRPMHYPRP was -0.276; that for RRIRTRPPRLPRPRPRPTHPPRP was 0.312. The value for RRIRARPPRLPRPRPRPCVYPRP was 0.121; that for RRIRFRPPRLPRPRPRPAAMPRP was 1.58.

Consider RRIRYRPPRLPRPRPRPVWNPRP, for which the “shrunken log2 fold change” value was -0.136. The value for RRIRQRPPRLPRPRPRPIAVPRP was -0.038; that for RRIRNRPPRLPRPRPRPFRHPRP was -0.727. For RRIRYRPPRLPRPRPRPKQVPRP, the “shrunken log2 fold change” value amounted to 0.234.

Take RRIRHRPPRLPRPRPRPYVCPRP: the “shrunken log2 fold change” value was determined as 0.0124. To RRIRERPPRLPRPRPRPFQMPRP belongs -0.112. The value for RRIRRRPPRLPRPRPRPWAKPRP was 0.0786; that for RRIRLRPPRLPRPRPRPMHLPRP was -0.0248. Regarding RRIRERPPRLPRPRPRPNNWPRP, the “shrunken log2 fold change” value is -0.524. For the sequence RRIRDRPPRLPRPRPRPCYIPRP, the “shrunken log2 fold change” value was found to be 0.0176. The value for RRIRVRPPRLPRPRPRPYVKPRP was -0.354. To RRIRYRPPRLPRPRPRPNFIPRP belongs -1.22; to RRIRYRPPRLPRPRPRPILYPRP, -0.679. To RRIRTRPPRLPRPRPRPFPIPRP belongs -1.16; to RRIRWRPPRLPRPRPRPGLQPRP, 0.0651.

Regarding RRIRYRPPRLPRPRPRPLAQPRP, the “shrunken log2 fold change” value was -0.17.

As to RRIRARPPRLPRPRPRPHRSPRP, the “shrunken log2 fold change” value was -0.0655. The value for RRIRLRPPRLPRPRPRPMWNPRP was -0.299; that for RRIRARPPRLPRPRPRPRYQPRP was -0.274. The value for RRIRCRPPRLPRPRPRPCNSPRP was -0.0476.

RRIRGRPPRLPRPRPRPVDNPRP: the “shrunken log2 fold change” value turned out to be 0.408. As to RRIRNRPPRLPRPRPRPSNTPRP, the “shrunken log2 fold change” value was -0.446. The value for RRIRHRPPRLPRPRPRPNVNPRP was -0.555; that for RRIRWRPPRLPRPRPRPYYKPRP was -0.823; that for RRIRLRPPRLPRPRPRPGARPRP was 0.369. To RRIRYRPPRLPRPRPRPVRMPRP belongs -0.246; to RRIRLRPPRLPRPRPRPHNGPRP, -0.00962; to RRIRTRPPRLPRPRPRPWTWPRP, -0.0696.

Regarding RRIRHRPPRLPRPRPRPRWPPRP, the “shrunken log2 fold change” value turned out to be 2.25. As to RRIRCRPPRLPRPRPRPKWSPRP, the “shrunken log2 fold change” value was 0.0876. For RRIRDRPPRLPRPRPRPAFTPRP, the “shrunken log2 fold change” value is -0.155. To RRIRERPPRLPRPRPRPHKQPRP belongs -0.0572; to RRIRVRPPRLPRPRPRPPQGPRP, 0.203. The value for RRIRLRPPRLPRPRPRPKDIPRP was -0.23; that for RRIRVRPPRLPRPRPRPKRAPRP was 0.553; that for RRIRRRPPRLPRPRPRPMCPPRP was -0.119.

With RRIRRRPPRLPRPRPRPRSIPRP, the “shrunken log2 fold change” value is -0.0781. The value for RRIRFRPPRLPRPRPRPNSDPRP was -0.209; that for RRIRWRPPRLPRPRPRPVYKPRP was -0.516; that for RRIRYRPPRLPRPRPRPNLLPRP was -0.213. The value for RRIRFRPPRLPRPRPRPCFFPRP was -0.378; that for RRIRNRPPRLPRPRPRPNLVPRP was -0.0403. The value for RRIRVRPPRLPRPRPRPVHRPRP was 0.164; that for RRIRFRPPRLPRPRPRPTDCPRP was -0.0151.

Turning to RRIRDRPPRLPRPRPRPWPFPRP, the “shrunken log2 fold change” value was 0.0405. To RRIRERPPRLPRPRPRPFTCPRP belongs -0.00783. Regarding RRIRARPPRLPRPRPRPFRSPRP, the “shrunken log2 fold change” value was -0.0968. The value for RRIRRRPPRLPRPRPRPLHDPRP was 0.359; that for RRIRDRPPRLPRPRPRPFIYPRP was -0.115; that for RRIRCRPPRLPRPRPRPKAPPRP was 0.337. To RRIRIRPPRLPRPRPRPKANPRP belongs -0.103; to RRIRCRPPRLPRPRPRPPHHPRP, 0.352.
